Laboratory results taken from publication PMC11088703, “Structural basis of human NOX5 activation” (Nature Communications, 2024).
Positions count from the first letter of the chain named.

What was measured:
[1] = target: the molecule itself; assay: cryo-EM structure; purified NOX5 in 0.05% digitonin; pre-reaction (5 mM EGTA + 1 mM NADPH), intermediate (1 mM CaCl2 + 1 mM NADPH) and post-reaction (1 mM CaCl2 + 1.2 mM NADP+ + 60 uM FAD) states; C2 symmetry imposed
[2] = target: the molecule itself; assay: SEC; Trp fluorescence-based gel filtration; Superose 6 Increase; 20 mM Tris pH 8.0, 200 mM NaCl, 0.004% LMNG/CHS; excitation 280 nm, emission 350 nm

B1: full-length human NADPH oxidase 5 (NOX5), NOX5-β variant (enzyme, UniProt Q96PH1-4 1-719, looked up)
chain: MSAEEDARWLRWVTQQFKTIAGEDGEISLQEFKAALHVKESFFAERFFALFDSDRSGTITLQELQEALTLLIHGSPMDKLKFLFQVYDIDGSGSIDPDELRTVLQSCLRESAISLPDEKLDQLTLALFESADADGNGAITFEELRDELQRFPGVMENLTISAAHWLTAPAPRPRPRRPRQLTRAYWHNHRSQLFCLATYAGLHVLLFGLAASAHRDLGASVMVAKGCGQCLNFDCSFIAVLMLRRCLTWLRATWLAQVLPLDQNIQFHQLMGYVVVGLSLVHTVAHTVNFVLQAQAEASPFQFWELLLTTRPGIGWVHGSASPTGVALLLLLLLMFICSSSCIRRSGHFEVFYWTHLSYLLVWLLLIFHGPNFWKWLLVPGILFFLEKAIGLAVSRMAAVCIMEVNLLPSKVTHLLIKRPPFFHYRPGDYLYLNIPTIARYEWHPFTISSAPEQKDTIWLHIRSQGQWTNRLYESFKASDPLGRGSKRLSRSVTMRKSQRSSKGSEILLEKHKFCNIKCYIDGPYGTPTRRIFASEHAVLIGAGIGITPFASILQSIMYRHQKRKHTCPSCQHSWIEGVQDNMKLHKVDFIWINRDQRSFEWFVSLLTKLEMDQAEEAQYGRFLELHMYMTSALGKNDMKAIGLQMALDLLANKEKKDSITGLQTRTQPGRPDWSKVFQKVAAEKKGKVQVFFCGSPALAKVLKGHCEKFGFRFFQENF
notes: NADPH oxidase 5, human, NOX5-β variant (called v2 isoform in the methods); full length; a Zn2+ is modelled between the two CXXC motifs at the dimer interface; also called NOX5 v2 isoform; hNOX5; source: HEK293F, BacMam virus, purified (GFP-nanobody beads, preScission cleavage, Superose 6 SEC in digitonin); not shown: GFP, N-terminal, cleaved
With B1 the “stoichiometry N” value [1] was 2.

B2: NOX5 R426A (enzyme, human, UniProt Q96PH1-4 1-719, looked up)
chain: B1 chain with R426A
notes: NADPH oxidase 5, human, NOX5-β variant (v2 isoform in the methods; UniProt Q96PH1-4), point mutant; source: HEK293F, purified with the same protocol as NOX5 wild type (GFP-nanobody beads, preScission cleavage); not shown: GFP, N-terminal, cleaved
B2: binds [2].

B3: NOX5 R531A (enzyme, human, UniProt Q96PH1-4 1-719, looked up)
chain: B1 chain with R531A
notes: as for B2
B3: binds [2].

B4: NOX5 R530A (enzyme, human, UniProt Q96PH1-4 1-719, looked up)
chain: B1 chain with R530A
notes: as for B2
B4: binds [2].
